Reference: doi:10.1101/2021.10.29.466502 (bioRxiv, 2021)

T1: thrombopoietin receptor MPL on Ba/F3-HuMpl cells (human, UniProt P40238 26-635, N-glycans (consensus sites N117, N178, N298, N358))
T1 sequence: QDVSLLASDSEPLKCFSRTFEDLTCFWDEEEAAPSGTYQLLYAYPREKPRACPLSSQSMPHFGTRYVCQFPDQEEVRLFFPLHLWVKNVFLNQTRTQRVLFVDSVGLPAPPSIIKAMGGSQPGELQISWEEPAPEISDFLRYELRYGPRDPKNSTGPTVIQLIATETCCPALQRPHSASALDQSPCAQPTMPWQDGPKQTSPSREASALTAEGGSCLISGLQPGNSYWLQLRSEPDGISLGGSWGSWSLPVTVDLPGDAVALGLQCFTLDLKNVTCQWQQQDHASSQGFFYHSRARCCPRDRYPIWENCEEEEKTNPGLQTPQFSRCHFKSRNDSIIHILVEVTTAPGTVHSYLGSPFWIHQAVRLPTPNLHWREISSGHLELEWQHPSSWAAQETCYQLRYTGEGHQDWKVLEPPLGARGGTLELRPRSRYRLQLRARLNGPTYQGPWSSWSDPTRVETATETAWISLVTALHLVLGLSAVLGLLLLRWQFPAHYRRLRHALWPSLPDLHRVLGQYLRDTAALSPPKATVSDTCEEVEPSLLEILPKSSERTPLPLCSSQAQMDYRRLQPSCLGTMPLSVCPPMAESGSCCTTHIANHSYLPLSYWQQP

B1: N-terminal His-tagged recombinant ThC (rThC) (natural protein)
chain: TACTTGPQTISFPAGLIVSLNASVQSSRNESVEVKDSNGNTVSRGSGSSSSGGTFTVINMEPPTFISDGNDYTVELSPQATPGILQTESSRVDNGRLIWQNYAFGANDGGCIVGDRDFNDVFVLITGLVRG

How the values were obtained:
[1] = target: thrombopoietin receptor MPL on Ba/F3-HuMpl cells (human) (UniProt P40238)
[2] = target: T1, thrombopoietin receptor MPL on …; experiment: cell-based or functional assay

Molecule	proliferation of Ba/F3-HuMpl cells, EC50 [1]	proliferation of Ba/F3-HuMpl cells, EC50 [2]
PA-IIL (from UniProt Q9HYN5 1-115) (natural protein)	17.5 µg/mL	
B1		0.26 µg/mL
